Cross-bleed corrected FRET normalized to fluorescence of donor data for one substance are collected here from publication PMC2585067.

In this assay the target is EYFP, free protein expressed in HeLa cells (Aequoria victoria). As to the kind of experiment: FRET or BRET.

Take “ECFP, free protein expressed in HeLa cells”: the cross-bleed corrected FRET normalized to fluorescence of donor is 6.2%.
